What was measured:
[1] = target: Phosphodiesterase I, 3',5'-cyclic-nucleotide-specific (PDE) (bovine) (UniProt P14100)
[2] = target: Myosin light chain kinase (MLCK), human, recombinant, GST-tagged (human) (UniProt Q15746)
[3] = target: Calcineurin (PPase-2B, CaN) (bovine)

Sequence of Phosphodiesterase I, 3',5'-cyclic-nucleotide-specific (PDE) (bovine) (P14100 whole entry): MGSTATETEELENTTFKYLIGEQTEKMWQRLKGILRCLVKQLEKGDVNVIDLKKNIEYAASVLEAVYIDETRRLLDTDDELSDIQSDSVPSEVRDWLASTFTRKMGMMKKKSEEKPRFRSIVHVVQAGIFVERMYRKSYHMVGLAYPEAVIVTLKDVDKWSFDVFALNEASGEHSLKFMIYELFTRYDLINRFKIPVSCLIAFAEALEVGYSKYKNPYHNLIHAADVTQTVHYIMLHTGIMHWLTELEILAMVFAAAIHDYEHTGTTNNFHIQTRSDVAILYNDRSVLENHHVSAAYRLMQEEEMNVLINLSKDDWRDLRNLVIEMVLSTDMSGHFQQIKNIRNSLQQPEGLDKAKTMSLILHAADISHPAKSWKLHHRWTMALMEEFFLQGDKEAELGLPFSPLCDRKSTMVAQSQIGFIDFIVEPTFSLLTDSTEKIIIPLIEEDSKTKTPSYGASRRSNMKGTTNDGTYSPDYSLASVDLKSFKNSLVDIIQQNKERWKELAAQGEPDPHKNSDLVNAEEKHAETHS
Sequence of Myosin light chain kinase (MLCK), human, recombinant, GST-tagged (human) (Q15746 whole entry): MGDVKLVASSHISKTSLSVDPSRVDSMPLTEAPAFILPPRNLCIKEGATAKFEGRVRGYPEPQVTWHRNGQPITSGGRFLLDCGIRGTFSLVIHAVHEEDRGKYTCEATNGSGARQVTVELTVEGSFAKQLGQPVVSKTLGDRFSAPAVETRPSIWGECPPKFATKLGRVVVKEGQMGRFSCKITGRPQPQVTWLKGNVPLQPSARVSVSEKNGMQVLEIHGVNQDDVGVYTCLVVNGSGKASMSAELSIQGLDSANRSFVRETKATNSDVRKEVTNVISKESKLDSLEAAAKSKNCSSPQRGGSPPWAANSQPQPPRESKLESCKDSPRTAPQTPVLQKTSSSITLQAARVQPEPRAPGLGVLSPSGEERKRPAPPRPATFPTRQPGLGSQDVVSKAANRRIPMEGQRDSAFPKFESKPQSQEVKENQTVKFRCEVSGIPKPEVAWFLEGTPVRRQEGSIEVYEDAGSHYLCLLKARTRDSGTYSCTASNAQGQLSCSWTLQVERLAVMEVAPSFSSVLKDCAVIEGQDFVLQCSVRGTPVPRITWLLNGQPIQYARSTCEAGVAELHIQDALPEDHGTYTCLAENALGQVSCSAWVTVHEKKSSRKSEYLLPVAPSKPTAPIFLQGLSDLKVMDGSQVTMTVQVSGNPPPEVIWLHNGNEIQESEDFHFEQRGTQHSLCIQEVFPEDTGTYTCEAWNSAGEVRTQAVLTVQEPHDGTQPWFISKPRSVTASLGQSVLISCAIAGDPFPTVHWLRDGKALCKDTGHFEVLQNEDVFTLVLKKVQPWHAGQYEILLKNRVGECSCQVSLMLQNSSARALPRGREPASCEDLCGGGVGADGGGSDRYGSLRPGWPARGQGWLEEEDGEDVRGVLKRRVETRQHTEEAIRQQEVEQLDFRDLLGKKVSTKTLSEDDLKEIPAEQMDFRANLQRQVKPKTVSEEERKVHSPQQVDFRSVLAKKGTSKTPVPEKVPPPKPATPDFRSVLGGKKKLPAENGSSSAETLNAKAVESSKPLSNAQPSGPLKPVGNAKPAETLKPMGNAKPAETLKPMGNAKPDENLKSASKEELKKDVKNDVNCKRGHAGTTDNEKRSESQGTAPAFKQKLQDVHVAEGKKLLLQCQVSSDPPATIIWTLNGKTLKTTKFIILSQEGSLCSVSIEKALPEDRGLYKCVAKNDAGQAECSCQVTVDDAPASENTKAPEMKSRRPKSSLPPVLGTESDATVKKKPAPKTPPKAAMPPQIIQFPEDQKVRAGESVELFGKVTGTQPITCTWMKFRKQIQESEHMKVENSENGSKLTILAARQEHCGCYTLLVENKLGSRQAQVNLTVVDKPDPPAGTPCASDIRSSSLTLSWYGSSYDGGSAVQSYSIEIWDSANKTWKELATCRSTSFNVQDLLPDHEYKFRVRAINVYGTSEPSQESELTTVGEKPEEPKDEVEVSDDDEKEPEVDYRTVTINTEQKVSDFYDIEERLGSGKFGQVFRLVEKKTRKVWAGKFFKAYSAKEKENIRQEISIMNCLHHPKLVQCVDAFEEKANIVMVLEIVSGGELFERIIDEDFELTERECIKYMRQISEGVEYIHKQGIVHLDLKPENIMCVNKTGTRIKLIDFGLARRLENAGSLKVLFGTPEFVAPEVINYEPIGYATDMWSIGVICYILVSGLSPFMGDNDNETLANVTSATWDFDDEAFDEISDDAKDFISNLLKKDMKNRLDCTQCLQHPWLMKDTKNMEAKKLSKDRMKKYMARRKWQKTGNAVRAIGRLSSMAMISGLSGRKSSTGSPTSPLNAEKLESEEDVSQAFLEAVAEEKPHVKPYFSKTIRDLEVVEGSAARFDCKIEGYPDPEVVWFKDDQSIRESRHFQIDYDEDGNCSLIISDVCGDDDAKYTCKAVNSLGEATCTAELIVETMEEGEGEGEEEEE

Substance: Human recombinant calmodulin (CaM) (from UniProt P0DP23 1-149) (natural protein)
- activation of PDE activity (mant-cGMP hydrolysis, 25°C, 150 nmol/L CaM, 6.5 nmol/L PDE, 1 mmol/L CaCl2), fold over the basal activity [1]: 2 fold
- activation of MLCK kinase activity (ADP-Glo luminescence, room temperature, 0.5 mmol/L CaCl2) against the CaM concentration, EC50 [2]: 5.6 nM
- activation of CaN phosphatase activity (PNPP dephosphorylation) by CaM, fold over the basal activity [3]: 2.34 fold
- activation of CaN phosphatase activity (PNPP dephosphorylation, 28°C) against the CaM concentration, EC50 [3]: 0.67 nM

Source: publication PMC7429351, “Comparison of ligand binding and conformational stability of human calmodulin with its homolog from the malaria parasite Plasmodium falciparum” (FASEB BioAdvances, 2020)
